Source: article PMC3247736

Test system: IgM (human)
Assay: QCM
Conditions: 500 mg/L IgM vs 100 ug/L IgE; 5'-biotin; 8.1 mM Na2HPO4, 1.1 mM KH2PO4, 1 mM MgCl2, 2.7 mM KCl, 138 mM NaCl, pH 7.4, 37 C; BSA-blocked avidin-coated gold crystal

GGGGCACGTTTATCCGTCCCTCCTAGTGGCGTGCCCC [D17.4 anti-IgE aptamer]
binding signal (% of IgE response): < 5
